Experimental data from patent EP3088890B1 (Chugai Seiyaku Kabushiki Kaisha, dated 2020).
Values belong to the binder of their own block, whether it stands above or below them.

Tests used:
[1] = molecular target: GPC3 core (sGPC3-His) protein (human) (UniProt P51654); experiment: competition ELISA on plate-bound sGPC3; unlabeled GT165 (100-fold) against competitor biotin-labeled GT607
[2] = molecular target: GPC3 core (sGPC3-His) protein (human) (UniProt P51654); experiment: ELISA on plate-bound sGPC3; biotin-labeled GT165, no unlabeled antibody
[3] = molecular target: GPC3 core (sGPC3-His) protein (human) (UniProt P51654); experiment: competition ELISA on plate-bound sGPC3; unlabeled GT114 (100-fold) against competitor biotin-labeled GT114; signal of the labeled antibody
[4] = molecular target: GPC3 core (sGPC3-His) protein (human) (UniProt P51654); experiment: competition ELISA on plate-bound sGPC3; unlabeled GT607 (100-fold) against competitor biotin-labeled GT114
[5] = molecular target: GPC3 core (sGPC3-His) protein (human) (UniProt P51654); experiment: competition ELISA on plate-bound sGPC3; unlabeled GT607 (100-fold) against competitor biotin-labeled GT607

GPC3 core (sGPC3-His) protein (human), sequence (P51654 25-563 S495A/S509A): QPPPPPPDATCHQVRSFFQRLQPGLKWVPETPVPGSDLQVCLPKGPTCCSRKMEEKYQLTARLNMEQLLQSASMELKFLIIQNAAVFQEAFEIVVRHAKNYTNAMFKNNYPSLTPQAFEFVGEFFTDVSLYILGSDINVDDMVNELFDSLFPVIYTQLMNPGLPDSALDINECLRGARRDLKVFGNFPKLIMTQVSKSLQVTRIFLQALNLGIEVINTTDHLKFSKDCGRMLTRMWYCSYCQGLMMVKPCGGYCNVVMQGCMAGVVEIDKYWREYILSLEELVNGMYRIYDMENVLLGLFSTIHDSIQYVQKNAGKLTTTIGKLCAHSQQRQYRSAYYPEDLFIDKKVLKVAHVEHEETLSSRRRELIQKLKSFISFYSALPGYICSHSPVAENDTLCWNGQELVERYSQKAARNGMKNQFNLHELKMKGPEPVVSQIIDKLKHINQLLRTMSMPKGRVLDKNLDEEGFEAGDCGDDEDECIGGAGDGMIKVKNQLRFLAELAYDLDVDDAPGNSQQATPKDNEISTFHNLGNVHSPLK

Inhibitory effect (%) [1]: 43%
O.D. 450 [2]: 1.68 O.D. 450
B1: GT165 antibody (antibody, IgG1, V domains shown)
VH: QVQLQQSGAELVGPGASVKISCKAFGYTFTNHHINWVKQRPGQGLDWIGYINPYNDYTNYNQKFKGKATLTVDKSSSTAYMELSSLTSEDSAVYYCARSDPAWFAYWGQGTLVTVSA
VL: DIQMTQSPSSLSASLGGKVTITCKASQDINKNIAWYQHKPGKGPRLLIWYTYTLQPGIPSRFSGSGSGRDYSFSISNLEPEDIATYYCLQYDNLPFTFGTGTKLEIKR

O.D. 450 [3]: 0.251 O.D. 450
B2: GT114 antibody (antibody, IgG1, V domains shown)
VH: DVQLQESGPGLVKPSQSLSLTCTVTGYSITSDSAWNWIRQFPGNKLEWMAYIMYSGITSYNPSLKSRISITRDTAKNQFFLQLNSVTTEDSATYYCSRGYWYFDVWGAGTTVTVSS
VL: QIVLTQSPAIMSASLGEEITLTCSASSSVSYMHWYQQKSGTSPKLLIYSTSILASGVPSRFSGSGSGTFYSLTISSVEAEDAADYYCLQWITYRTFGGGTKLEIKR

Inhibitory effect (%) [4]: 51%
Inhibitory effect (%) [5]: 94%
B3: GT607 antibody (antibody, IgG1, V domains shown)
VH: EVQLVESGGDVVRPGGSLKLSCAASGFTFSSYGMSWVRQLPDKRLEWVASVGNGGSYRYYPENLKGRFTISRDNTKNTLYLQISGLKSEDTAIYYCARRGAFPYFDVWGAGTTVTVSS
VL: QIVLTQSPAIMSASPGEKVTLACSASSSVTYMHWYQQKSGTSPKRWIYETSKLASGVPPRFSGSGSGTSYSLTISTMEAEDAATYYCQQWSSNPLTFGAGTKLELKR
